How the values were obtained:
[1] = phospho-S243 immunoblot, anti-IgM-stimulated Ramos; details: glycan lost; control: WT Lsp1
[2] = phospho-S243 immunoblot, anti-IgM-stimulated splenic B cells; details: glycan gained; control: no TG

B1: lymphocyte-specific protein-1 (Lsp1, mLsp1): S209A (protein)
parent chain: MAEAAIDPRCEEQEELHAEDSEGLTTQWREEDEEEAAREQRQRERERQLQDQDKDKEDDGGHSLEQPGQQTLISLKSSELDEDEGFGDWSQKPEPRQQFWGNEGTAEGTEPSQSERPEEKQTEESSHQAKVHLEESNLSYREPDPEDAVGGSGEAEEHLIRHQVRTPSPLALEDTVELSSPPLSPTTKLADRTESLNRSIKKSNSVKKSQPTLPISTIDERLQQYTQATESSGRTPKLSRQPSIELPSMAVASTKTLWETGEVQSQSASKTPSCQDIVAGDMSKKSLWEQKGGSKISSTIKSTPSGKRYKFVATGHGKYEKVLVDEGSAP
- other: phosphorylation at S243 [1]: decreases

B2: lymphocyte-specific protein-1 (Lsp1, mLsp1): thiamet-G (TG) (protein)
parent chain: MAEAAIDPRCEEQEELHAEDSEGLTTQWREEDEEEAAREQRQRERERQLQDQDKDKEDDGGHSLEQPGQQTLISLKSSELDEDEGFGDWSQKPEPRQQFWGNEGTAEGTEPSQSERPEEKQTEESSHQAKVHLEESNLSYREPDPEDAVGGSGEAEEHLIRHQVRTPSPLALEDTVELSSPPLSPTTKLADRTESLNRSIKKSNSVKKSQPTLPISTIDERLQQYTQATESSGRTPKLSRQPSIELPSMAVASTKTLWETGEVQSQSASKTPSCQDIVAGDMSKKSLWEQKGGSKISSTIKSTPSGKRYKFVATGHGKYEKVLVDEGSAP
- other: phosphorylation at S243 [2]: increases
